Experiments:
[1] = cycloheximide chase, western blot; conditions: glycan lost; control: NRP1-WT
[2] = confocal, Met co-internalisation with NRP1, HT29; conditions: glycan lost; control: NRP1-WT
[3] = confocal, EEA1/Rab7 co-localisation, 10% FBS medium; conditions: glycan lost; control: NRP1-WT
[4] = confocal, surface delivery; 24 h transient or serum-free; conditions: glycan lost; control: NRP1-WT
[5] = confocal, β1-integrin co-internalisation with NRP1, HT29; conditions: glycan lost; control: NRP1-WT
[6] = confocal, HGF-stimulated endocytosis after serum starvation; conditions: glycan lost; control: NRP1-WT
[7] = confocal, HT29 NRP1-WT cells, 24 h treatment; conditions: control: DMSO

Which results are given for Neuropilin-1 (NRP1): N150Q?
degradation_or_half_life [1]: increases; localisation_or_trafficking [2]: increases; localisation_or_trafficking [3]: changes; localisation_or_trafficking [4]: no change; localisation_or_trafficking [5]: increases; localisation_or_trafficking [6]: increases

Which results are given for Neuropilin-1 (NRP1): N150Q/N261Q?
degradation_or_half_life [1]: increases; localisation_or_trafficking [3]: changes

For Neuropilin-1 (NRP1): N261Q, which degradation_or_half_life [1] is on record?
The degradation_or_half_life was “increases”.

And the localisation_or_trafficking [2]?
The localisation_or_trafficking was “increases”.

And the localisation_or_trafficking [3]?
Its localisation_or_trafficking is “changes”.

What about the localisation_or_trafficking [4] of the same substance?
Its localisation_or_trafficking is “no change”.

What about the localisation_or_trafficking [5] of the same substance?
Its localisation_or_trafficking is “increases”.

And the localisation_or_trafficking [6]?
The localisation_or_trafficking was “increases”.

Which results are given for Neuropilin-1 (NRP1): N300Q?
degradation_or_half_life [1]: no change; localisation_or_trafficking [3]: no change; localisation_or_trafficking [6]: no change

With Neuropilin-1 (NRP1): N522Q as the substance, how does the degradation_or_half_life [1] read?
The degradation_or_half_life was “no change”.

And the localisation_or_trafficking [3]?
The localisation_or_trafficking was “no change”.

And the localisation_or_trafficking [6]?
Its localisation_or_trafficking is “no change”.

With Neuropilin-1 (NRP1): N842Q as the substance, how does the degradation_or_half_life [1] read?
Its degradation_or_half_life is “no change”.

And the localisation_or_trafficking [3]?
The localisation_or_trafficking was “no change”.

And the localisation_or_trafficking [6]?
The localisation_or_trafficking was “no change”.

For Neuropilin-1 (NRP1): S612A, which degradation_or_half_life [1] is on record?
Its degradation_or_half_life is “no change”.

And the localisation_or_trafficking [3]?
Its localisation_or_trafficking is “no change”.

What about the localisation_or_trafficking [6] of the same substance?
The localisation_or_trafficking was “no change”.

With Neuropilin-1 (NRP1): swainsonine as the substance, how does the localisation_or_trafficking ([7]; glycan changed form) read?
Its localisation_or_trafficking is “changes”.

For Neuropilin-1 (NRP1): tunicamycin, which localisation_or_trafficking ([7]; glycan lost) is on record?
The localisation_or_trafficking was “changes”.
